This is an account of results in patent US20210107972A1 (NEURIMMUNE, published 2021).

The target in assay [1] is bovine serum albumin (BSA) (bovine, UniProt P02769 25-607). Kind of assay: direct ELISA, BSA coated at 10 µg/ml.
Assay [2] deals with T1, human islet amyloid polypeptide (human IAPP), IAPP solution containing IAPP fibrils (human, not fully specified; disulfide bridge between cysteine residues 2 and 7 and an amidated C-terminus (as the filing describes human IAPP)).
T1 construct: The human IAPP solution used for ELISA coating contained IAPP fibrils (electron microscopy); also called hIAPP; amylin
T1 peptide: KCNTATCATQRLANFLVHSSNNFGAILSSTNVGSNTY
Put plainly: direct ELISA, human IAPP solution (fibrils) coated at 10 µg/ml, comparison with chimeric.

The target in assay [3] is T2, pepscan peptide 6: 16-LVHSSNNFGA-25 (human).
T2 construct: Spotted on a nitrocellulose membrane
T2 peptide: LVHSSNNFGA
Put plainly: pepscan on nitrocellulose membrane, antibody 1 µg/ml.

Assay [4] concerns the target T3, pepscan peptide 7: 19-SSNNFGAILS-28 (human).
T3 construct: Spotted on a nitrocellulose membrane
T3 peptide: SSNNFGAILS
Described as above.

In assay [5] the target is T1, human islet amyloid polypeptide (human …). Put plainly: direct ELISA, human IAPP solution (fibrils) coated at 10 µg/ml.
The target of assay [6] is T4, pathological Aβ amyloid (Alzheimer's disease human brain) (human, UniProt P05067 672-713).
T4 construct: also called Aβ deposits
Kind of assay: immunohistochemistry, paraffin-embedded Alzheimer's disease brain sections.

The target in assay [7] is T5, pepscan peptide 1: 1-KCNTATCATQ-10 (human, ends and bridges not checked; cysteine pairing not given here).
T5 construct: Spotted on a nitrocellulose membrane
T5 peptide: KCNTATCATQ
Kind of assay: pepscan on nitrocellulose membrane, antibody 1 µg/ml.

In assay [8] the target is T6, pepscan peptide 2: 4-TATCATQRLA-13 (human).
T6 construct: Spotted on a nitrocellulose membrane
T6 peptide: TATCATQRLA
Put plainly: pepscan on nitrocellulose membrane.

No end group written: not given here.

Sequence of bovine serum albumin (BSA) (P02769 25-607 limits assumed): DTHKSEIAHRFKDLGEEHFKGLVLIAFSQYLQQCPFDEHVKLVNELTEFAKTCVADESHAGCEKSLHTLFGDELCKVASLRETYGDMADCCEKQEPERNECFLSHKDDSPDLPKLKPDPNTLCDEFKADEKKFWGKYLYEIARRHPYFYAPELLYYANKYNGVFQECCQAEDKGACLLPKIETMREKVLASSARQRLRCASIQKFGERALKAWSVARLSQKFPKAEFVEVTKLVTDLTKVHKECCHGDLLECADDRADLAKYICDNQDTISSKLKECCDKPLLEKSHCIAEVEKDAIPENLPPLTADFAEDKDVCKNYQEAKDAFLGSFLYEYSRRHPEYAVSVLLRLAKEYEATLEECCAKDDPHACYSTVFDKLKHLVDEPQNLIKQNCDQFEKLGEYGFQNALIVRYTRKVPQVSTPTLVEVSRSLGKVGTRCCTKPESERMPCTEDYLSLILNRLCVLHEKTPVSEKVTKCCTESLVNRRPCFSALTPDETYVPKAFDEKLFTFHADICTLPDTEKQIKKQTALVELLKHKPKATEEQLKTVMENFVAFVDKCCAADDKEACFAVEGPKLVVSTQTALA

B1: NI-203.19H8 (antibody, V domains shown)
VH: EVQLVESGGGVVQPGTSLRLSCAASGFTFSSYGMHWVRQAPGKGLEWVAIIWYDGSKEYYADSLKGRVTISRDNSENTLYLQLHTLRVEDTAVYFCARTIASATVDHGMDVWGQGTLVTVSS
VL: DVVMTQSPSSVSASVGDRVTITCRASHDISTWLAWYQQRPGKAPNLLIFGASRLQSGVSPRFSGSGSGTDFTLTISSLQPEDFATYYCQQTNNFPPTFGQGTRLEIK
notes: Recombinant human antibody, kappa light chain, detected with anti-human IgG gamma secondary
In the case of B1, the binding result is “no binding” in assay [1], “binds” in assay [3], “binds” in assay [4] and “no binding (tested: 50 nM)” in assay [6]. Further, the EC50 in assay [2] stood at 22.9 nM; in assay [5], 22 nM.

B2: mouse chimeric NI-203.19H8 (antibody, V domains shown)
VH: EVQLVESGGGVVQPGTSLRLSCAASGFTFSSYGMHWVRQAPGKGLEWVAIIWYDGSKEYYADSLKGRVTISRDNSENTLYLQLHTLRVEDTAVYFCARTIASATVDHGMDVWGQGTLVTVSS
VL: DVVMTQSPSSVSASVGDRVTITCRASHDISTWLAWYQQRPGKAPNLLIFGASRLQSGVSPRFSGSGSGTDFTLTISSLQPEDFATYYCQQTNNFPPTFGQGTRLEIK
notes: Mouse chimeric version of the human antibody (said to comprise the CDR domains of the human antibody)
Regarding B2, in assay [1], the binding result is “no binding”. The same molecule had an EC50 in assay [5] of 23.9 nM.

B3: NI-203.26C11 (antibody, V domains shown)
VH: QVQLQESGPGLVKPSQTLSLTCTVSGGSISSGNYYWTWIRQPAGKGLEWIGHIYSSGTTNYNPSLESRVTISVDTSKNQFSLSLNSVTAADTAVYYCARPLATVPDAFNIWGQGTMVTVSS
VL: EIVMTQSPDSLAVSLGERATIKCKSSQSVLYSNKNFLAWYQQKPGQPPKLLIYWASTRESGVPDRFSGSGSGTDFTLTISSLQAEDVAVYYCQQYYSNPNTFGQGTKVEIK
notes: as for B1
Take B3: the binding result in assay [1] is “no binding”; in assay [7], “binds”; in assay [8] it was “no binding (tested: 1 µg/ml)”; in assay [6], “no binding (tested: 50 nM)”.

B4: mouse chimeric NI-203.26C11 (antibody, V domains shown)
VH: QVQLQESGPGLVKPSQTLSLTCTVSGGSISSGNYYWTWIRQPAGKGLEWIGHIYSSGTTNYNPSLESRVTISVDTSKNQFSLSLNSVTAADTAVYYCARPLATVPDAFNIWGQGTMVTVSS
VL: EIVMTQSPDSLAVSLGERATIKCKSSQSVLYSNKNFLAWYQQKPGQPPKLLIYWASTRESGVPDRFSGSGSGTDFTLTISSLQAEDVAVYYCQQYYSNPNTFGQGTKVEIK
notes: as for B2
Consider B4, for which, in assay [1], the binding result is “no binding”.

B5: NI-203.8E3 (antibody, V domains shown)
VH: QVQLVQSGAEVKKPGSSVKVSCKASGGTFSSHTISWVRQAPGQGLEWMGGIIPIFGTANYAQKFQDRVTVTADKSTNTAYMELSSLRPEDTAVYYCAKGELEPRILYYYGMDVWGRGTTVTVSS
VL: DVVMTQSPLSLPVTLGQPASISCRSSQSLVYSDGNTYLNWFHQRPGQSPRRLIYKVSNRDSGVPDRFSGSGSGTDFTLKISRVEAEDVGVYYCMQGSNWPGTFGQGTKVEIK
notes: as for B1
As to B5, in assay [1], the binding result is “no binding”.

B6: NI-203.9A2 (antibody, V domains shown)
VH: EVQLVESGGGLVQPGGSLRLSCAASGFTFSTFAMSWVRQAPGKGLEWVSTISGSGDNTYYADSLKGRFTISRDNSKNTLYLQVNSLRPEDTAVYYCAKSPSSLLATYFDYWGQGTLVTVSS
VL: EIVLTQSPSTLSASVGDRVTITCRASESINSWLAWYQQKPGKGPKLLIYKASSLQSGVPSRFSGSGSGTEFTLTISSLQPDDFATYYCQQHNSYWTFGQGTKVEIK
notes: as for B1
B6: the binding result in assay [1] is recorded as “no binding”; in assay [6], “no binding (tested: 50 nM)”.

B7: mouse chimeric NI-203.9A2 (antibody, V domains shown)
VH: EVQLVESGGGLVQPGGSLRLSCAASGFTFSTFAMSWVRQAPGKGLEWVSTISGSGDNTYYADSLKGRFTISRDNSKNTLYLQVNSLRPEDTAVYYCAKSPSSLLATYFDYWGQGTLVTVSS
VL: EIVLTQSPSTLSASVGDRVTITCRASESINSWLAWYQQKPGKGPKLLIYKASSLQSGVPSRFSGSGSGTEFTLTISSLQPDDFATYYCQQHNSYWTFGQGTKVEIK
notes: as for B2
Turning to B7, the binding result in assay [1] is given as “no binding”.
